The results in this text go back to publication PMC9798946, “Properties and Activity of Peptide Derivatives of ACE2 Cellular Receptor and Their Interaction with SARS-CoV-2 S Protein Receptor-Binding Domain” (Doklady. Biochemistry and Biophysics, 2022).

Where two headings read alike, the source gives them in different places.

Data set [1] in a line: Degree of α-helicity by circular dichroism (CD) spectroscopy. Type of data set: physicochemical.
Data set [2] concerns the target T1, SARS-CoV-2 S protein RBD RBD (Severe acute respiratory syndrome coronavirus 2), P0DTC2. The following applies: modification not given.
The target of data set [3] is T1, SARS-CoV-2 S protein RBD RBD (Severe …). The following applies: modification not given. The source holds these as a separate data set.
Data set [4] shares this target. The following applies: modification not given. This is another data set of the same source.
Data set [5] shares this target. The following applies: modification not given. This is another data set of the same source.
Data set [6] shares this target. As to conditions: modification not given. This is another data set of the same source.

Regarding `CC[C@H](C)[C@H](N)C(=O)N[C@@H](CCC(=O)O)C(=O)N[C@@H](CCC(=O)O)C(=O)N[C@@H](CCC(N)=O)C(=O)N[C@@H](C)C(=O)N[C@@H](CCCCN)C(=O)N[C@H](C(=O)N[C@@H](Cc1ccccc1)C(=O)N[C@@H](CC(C)C)C(=O)N[C@@H](CC(=O)O)C(=O)N[C@@H](CCCCNC(=O)CCS)C(=O)N[C@@H](Cc1ccccc1)C(=O)N[C@@H](CC(N)=O)C(=O)N[C@@H](Cc1c[nH]cn1)C(=O)N[C@@H](CCC(N)=O)C(=O)N[C@@H](C)C(=O)N[C@@H](CCC(=O)O)C(=O)N[C@@H](CC(=O)O)C(=O)N[C@@H](CC(C)C)C(=O)N[C@@H](Cc1ccccc1)C(=O)N[C@@H](Cc1ccc(O)cc1)C(=O)N[C@H](CCCCN)C(=O)O)[C@@H](C)O` [h1–Mpa], in data set [1] (solvent H2O), the “α-Helicity, H2O” value is recorded as 6.0%. The “α-Helicity, TFE” value in data set [1] (solvent trifluoroethanol (TFE)) is 85.3%. In data set [1] (solvent water–ethanol mixture (WEM)), the “α-Helicity, WEM” value turned out to be 37.8%.

In turn, IEEQAKTFLDKFNHQAEDLFYK [h1-Mpa (21-42)] registered an equilibrium dissociation constant (Kd) in data set [2] of 1070 nM.

For the molecule DKWSAFLKEQSTIAQMYPLQECI [h2 (67-89)], the Kd amounted to 2580 nM in data set [3] and 40000 nM in data set [4].

Take NCGDKWSAFLKEQSTLAQMYPLQE [900h2 (64-87)]: the Kd in data set [5] came out at 7220 nM; in data set [6] it was 1700 nM.
